Results taken from doi:10.1101/2024.09.20.614047, “The Role of ATP Synthase Subunit e (ATP5I) in Mediating the Metabolic and Antiproliferative Effects of Metformin” (bioRxiv, 2024).

Molecular target: the molecule itself
Assay: SEC; gel filtration of purified rATP5I (Superose 12 10/300 GL in legend B; calibrated Superose 6 10/300 GL in legend C); oligomeric state of the protein in solution

B1: recombinant purified ATP5I (ATP synthase subunit e), N-terminal 6x-His-tagged (natural protein, human, UniProt P56385 1-69, looked up)
chain: MVPPVQVSPLIKLGRYSALFLGVAYGATRYNYLKPRAEEERRIAAEEKKKQDELKRIARELAEDDSILK
notes: No cleavage of the His tag is described; the gel filtration legend names the Nter-6×His-ATP5I construct; also called rATP5I; recombinant ATP5I; source: Rosetta E. coli BL21, purified (solubilised in 6 M guanidine, HisTrap FF, desalting column, concentrated); not shown: 6x-His, N-terminal, kept
stoichiometry N: ~10
